From paper PMC10658565, “Polymorphic nanobody crystals as long‐acting intravitreal therapy for wet age‐related macular degeneration” (Bioengineering & Translational Medicine, 2023)

B1: mNb‐WT [not stated] / recombinant VEGF‐A165 protein [not stated] (parent complex)
chain 1: MDVQLVESGGGLVQPGGSLRLSCAASGRTFSSYSMGWFRQAPGKEREFVVAISKGGYKYDAVSLEGRFTISRDNAKNTVYLQINSLRPEDTAVYYCASSRAYGSSRLRLADTYEYWGQGTLVTVSS
chain 2: APMAEGGGQNHHEVVKFMDVYQRSYCHPIETLVDIFQEYPDEIEYIFKPSCVPLMRCGGCCNDEGLECVPTEESNITMQIMRIKPHQGQHIGEMSFLQHNKCECRPKKDRARQENPCGPCSERRKHLFVQDPQTCKCSCKNTDSRCKARQLELNERTCRCDKPRR

Variants of: B1
Assay: ELISA; parent: 0.73 nM

Variant	EC50 [nM]
chain 1 MDVQLVESGGGLVNPGGSLRLSCAASGRTFSSYSMGWFRQAPGKEREFVVAISKGGYKYDAVSLEGRFTISRDNAKNTVYLQINSLRPEDTAVYYCASSRAYGSSRLRLADTYEYWGQGTLVTVSS	0.77
chain 1 MDVQLVESGGGLVQPGGSLRLSCAASGRTFSSYSMGWFRQAPGAAREFVVAISKGGYKYDAVSLEGRFTISRDNAKNTVYLQINSLRPEDTAVYYCASSRAYGSSRLRLADTYEYWGQGTLVTVSS	0.91
chain 1 MDVQLVEAGGGLVQPGGSLRLSCAASGRTFSSYSMGWFRQAPGKEREFVVAISKGGYKYDAVSLEGRFTISRDNAKNTVYLQINSLRPEDTAVYYCASSRAYGSSRLRLADTYEYWGQGTLVTVSS	0.82
chain 1 MDVQLVESGGGLVQPGGSLRLSCAASGRTFSSYSMGWFRQAPGKEREFVVAISKGGYKYDAVSLEGRFTISRDNAKNTVYLQINSLRPEDTAVYFCASSRAYGSSRLRLADTYEYWGQGTLVTVSS	0.8
chain 1 MDVQLVESGGGLVQPGGSLRLSCAASGRTFSSYSMGWFRQAPGKAREFVVAISKGGYKYDAVSLEGRFTISRDNAKNTVYLQINSLRPEDTAVYYCASSRAYGSSRLRLADTYEYWGQGTLVTVSS	0.79
chain 1 MDVQLVESGGGLVQPGGSLRLSCAASGRTFSSYSMGWFRQAPGKEREFVVAISKGGYKYDAVSLEGRFTISRDNAKNTVYLQINSLRPEDTAVYYCASSRAYGSSRLRLADTYEYWGNGTLVTVSS	0.77
chain 1 MDVQLVESGGGLVQPGGSLRLSCAASGRTFSSYSMGWFRQAPGAEREFVVAISKGGYKYDAVSLEGRFTISRDNAKNTVYLQINSLRPEDTAVYYCASSRAYGSSRLRLADTYEYWGQGTLVTVSS	0.62
